Holding throughout (assay): FRET or BRET
Assay [1] has as its target calpain-2 Cys105Ala-CCPGCC-H6 (rat) labelled with LumioGreen, with the truncated small subunit (rat) (UniProt Q07009).
For assay [2], the target named is calpain-2 Cys105Ala-eGFP-H6 (rat) with the truncated small subunit (rat) (UniProt Q07009).
Assay [3] concerns the target labeled calpastatin fragments (competition by non-fluorigenic calpains).

In the case of “cL-ABC-D1 Cys241Ser Ser142Cys labelled with AlexaFluor546 (from UniProt P20810 114-270) (domain or fragment)”, the increase in EmAcc/EmDon on addition of calcium in assay [1] came out at 330%; in assay [2], 99.9%.

“cL-ABC-D1 Cys241Ser Ser142Cys labelled with TMR (from UniProt P20810 114-270) (domain or fragment)”: in assay [1], the increase in EmAcc/EmDon on addition of calcium was 330%.

For “cL-ABC-D1 Cys241Ser Ser148Cys labelled with AlexaFluor546 (from UniProt P20810 114-270) (domain or fragment)”, the increase in EmAcc/EmDon on addition of calcium in assay [1] was determined as 330%. In assay [2], the increase in EmAcc/EmDon on addition of calcium is 99.9% and the maximal calcium-dependent increase in EmAcc/EmDon (average) worked out at 0.45.

For the substance “cL-ABC-D1 Cys241Ser Ser148Cys labelled with TMR (from UniProt P20810 114-270) (domain or fragment)”, in assay [1], the increase in EmAcc/EmDon on addition of calcium turned out to be 330%.

Take “cL-ABC-D1 Cys241Ser Ser151Cys labelled with AlexaFluor546 (from UniProt P20810 114-270) (domain or fragment)”: in assay [1], the increase in EmAcc/EmDon on addition of calcium is 330%. Besides, in assay [2], the FRET efficiency was determined as 32.7%, the increase in EmAcc/EmDon on addition of calcium was found to be 99.9% and the maximal calcium-dependent increase in EmAcc/EmDon (average) came out at 0.45.

Regarding “cL-ABC-D1 Cys241Ser Ser151Cys labelled with TMR (from UniProt P20810 114-270) (domain or fragment)”, the increase in EmAcc/EmDon on addition of calcium in assay [1] was determined as 330%.

Consider “cL-ABC-D1 Cys241Ser Ser223Cys labelled with AlexaFluor546 (from UniProt P20810 114-270) (domain or fragment)”, for which, in assay [2], the FRET efficiency came out at 13.2% and the increase in EmAcc/EmDon on addition of calcium was found to be 34.1%.

With “cL-ABC-D1-Cys241Ser-Ala246Cys Alexafluor546 (from UniProt P20810 114-270) (domain or fragment)”, in assay [2], the FRET efficiency was 33.5%; the absolute increase in EmAcc/EmDon on addition of calcium (2.5 mM) worked out at 0.456; the increase in EmAcc/EmDon on addition of calcium was determined as 99.9%; the increase in EmAcc/EmDon on addition of calcium (2.5 mM), single assay was 70%. Also, in assay [2], the maximal calcium-dependent increase in EmAcc/EmDon (average) amounted to 0.45.

For “cL-AtB-D1 Ser142Cys labelled with AlexaFluor546 (from UniProt P20810 114-202) (domain or fragment)”, in assay [2], the increase in EmAcc/EmDon on addition of calcium came out at 66.7%.

In the case of “cL-AtB-D1 Ser148Cys labelled with AlexaFluor546 (from UniProt P20810 114-202) (domain or fragment)”, in assay [2], the increase in EmAcc/EmDon on addition of calcium was determined as 66.7% and the maximal calcium-dependent increase in EmAcc/EmDon (average) came out at 0.169.

With “cL-AtB-D1-Ser151Cys-Alexafluor546 (from UniProt P20810 114-202) (domain or fragment)”, in assay [2], the FRET efficiency is 25.3%; the absolute increase in EmAcc/EmDon on addition of calcium (2.5 mM) worked out at 0.22; the increase in EmAcc/EmDon on addition of calcium turned out to be 66.7%; the increase in EmAcc/EmDon on addition of calcium (2.5 mM), single assay was determined as 64.4%. Also, the maximal calcium-dependent increase in EmAcc/EmDon (average) in assay [2] was 0.169.

In assay [3], “calpain-2 Cys105Ala (rat), non-fluorigenic, with the truncated small subunit (from UniProt Q07009 20-700) (complex)” had an inhibition of FRET at ~0.35 μM competitor of 50%.

Consider “porcine erythrocyte calpain 1 (from UniProt P35750 1-714; P04574 1-266) (complex)”, for which the inhibition of FRET at ~0.35 μM competitor in assay [3] stood at 50%.
